Test results taken from patent publication EP4631959A2, “NOVEL MINIGASTRIN-DERIVED CHOLECYSTOKININ 2 RECEPTOR BINDING MOLECULES FOR IMAGING AND TARGETED RADIOTHERAPY” (priority 2022, dated 2024).
Where two headings read alike, the source gives them in different places. Starred links: 1 amine or outer side, 2 acyl side, 3 side chain; linkers in the order of their positions; H or OH if unused. Non-standard residues stand in square brackets, D forms with d. Residues, ends and D or L forms follow the SMILES beside them. *: point of attachment. DOTA = O=C(O)CN1CCN(CC(=O)O)CCN(CC(=O)*)CCN(CC(=O)O)CC1; d(γGlu) = O=C(O)[C@@H](CCC(=O)[*:2])N[*:1]; 1Nal = N[C@@H](Cc1cccc2ccccc12)C(=O)O; NMeNle = CCCC[C@H](NC)C(=O)O; PEG4 = NCCOCCOCCOCCOCCC(=O)O

Assays:
CCK-2R [1] = molecular target: T1, CCK-2R (Rattus norvegicus, UniProt P30553); test: Determination of IC50: CCK-2R affinity on AR4-2J cells, competition with [^177Lu]Lu-DOTA-PP-F11N; type: binding; conditions: AR4-2J cells
T1 construct: The CCK-2R expressing rat pancreatic tumor cells AR4-2J; host or cells: AR4-2J rat pancreatic tumor cells
T1 sequence (P30553 1-452): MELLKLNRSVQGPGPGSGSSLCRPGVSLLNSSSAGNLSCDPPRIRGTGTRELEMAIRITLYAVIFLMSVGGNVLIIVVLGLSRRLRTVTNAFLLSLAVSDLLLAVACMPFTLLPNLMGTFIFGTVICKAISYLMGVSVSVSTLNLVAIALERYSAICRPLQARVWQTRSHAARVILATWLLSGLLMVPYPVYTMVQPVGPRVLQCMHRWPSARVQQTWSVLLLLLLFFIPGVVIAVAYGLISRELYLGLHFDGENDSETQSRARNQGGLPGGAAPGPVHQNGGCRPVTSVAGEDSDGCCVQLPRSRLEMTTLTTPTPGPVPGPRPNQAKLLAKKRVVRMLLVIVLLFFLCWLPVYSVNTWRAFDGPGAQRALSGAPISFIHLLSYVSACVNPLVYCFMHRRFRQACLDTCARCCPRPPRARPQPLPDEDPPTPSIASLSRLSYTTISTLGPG
In short: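 Competitive displacement of 0.3 pmol/well [177Lu]Lu-DOTA-PP-F11N by compounds (10^-10 to 10^-4 M) on AR4-2J cells in BSA-supplemented medium, 3 h at 37 °C. Free label was collected from medium plus PBS rinse, and cell-bound label was recovered with 1 M NaOH, both measured by γ-counter. Each IC50 was determined twice, in triplicate.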

[2] = molecular target: T2, Human serum albumin (HSA) (Homo sapiens, UniProt P02768); test: Determination of HSA binding on a Chiralpak HSA column; type: in vitro ADME
T2 construct: purchased Daicel, Tokyo, Japan H13H-2433
In short: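 Retention on an HSA column with a 50 mM NH4OAc (pH 6.9)/isopropanol gradient at 0.5 mL/min, rt; samples run at 0.5 mg/mL in A/B (1/1). Binding derived by non-linear regression against nine reference compounds spanning 13 to 99% HSA binding.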

[3] = Biodistribution in AR4-2J tumor-bearing CB17-SCID mice; type: in vivo; conditions: female, CB17-SCID, mouse, in vivo, iv, 100 pmol, total radioactivity
Method: (§1) All animal experiments were conducted in accordance with general animal welfare regulations in Germany (German animal protection act, in the edition of the announcement, dated May 18th, 2006, as amended by Article 280 of June 19th 2020, approval no. ROB-55.2-1-2532.Vet_02-18-109 by the General Administration of Upper Bavaria) and the institutional guidelines for the care and use of animals. CB17-SCID mice of both genders (Charles River Laboratories International Inc., Sulzfeld, Germany) were let to acclimate at the in-house animal facility at least for one week before inoculation was performed. To establish tumor xenografts, AR4-2J cells (5.0 × 10^6 cells per 200 µL) were suspended in a 1/1 mixture (v/v) of Dulbecco modified Eagle medium / Nutrition Mixture F-12 with Glutamax-I (1/1) and Cultrex® Basement Membrane Matrix Type 3 (Trevigen, Gaithersburg, MD, USA) and inoculated subcutaneously onto the right shoulder of 6-10 weeks old CB17-SCID mice (Charles River, Sulzfeld, Germany). Mice were used for experiments when tumors had grown to a volume of 150-300 mm^3 (1-2 weeks after inoculation). Exclusion criteria for animals from an experiment were either a weight loss higher than 20%, a tumor size above 1,500 mm^3, an ulceration of the tumor, a respiratory distress or a change of behavior. None of these criteria applied to any animal from the experiment. Neither randomization nor blinding was applied in the allocation of the experiments. Health status is SPF according to FELASA.
(§2) Approximately 1-5 MBq (100 pmol) of the radiolabeled minigastrin analogues were injected into the tail vein of AR4-2J tumor-bearing female CB17-SCID mice and sacrificed at 1 to 24 h post injection (n = 4-5). Selected organs were removed, weighted and measured in a γ-counter.

[4] = n-Octanol-PBS distribution coefficient (logD7.4); type: physicochemical; conditions: for logD7.4 (n ≥ 5), ^67Ga-labeled: pH = 7.4, ^67Ga-labeled; for logD7.4 (n ≥ 5), ^177Lu-labeled: pH = 7.4, ^177Lu-labeled
Method: Approximately 1 MBq of the labeled tracer was dissolved in 1 mL of a 1/1 mixture (v/v) of phosphate buffered saline (PBS, pH = 7.4) and n-octanol in an Eppendorf tube (1.5 mL). After vigorous mixing of the suspension for 3 min at rt, the vial was centrifuged at 9,000 rpm for 5 min (Biofuge 15, Heraeus Sepatech, Osterode, Germany) and 200 µL aliquots of both layers were measured in a γ-counter. The experiment was repeated at least five times.

CCK-2R [5] = test: Competition studies in AR4-2J tumor-bearing CB17-SCID mice; type: in vivo; conditions: co-administration of excess unlabeled competitor (40 nmol), 24 h p.i.
Method: For competition studies, the radiolabeled compound (approx. 1-5 MBq, 100 pmol) was co-injected with [^natLu]Lu-DOTA-MGS5 (40 nmol) into the tail vein of AR4-2J tumor-bearing CB17-SCID mice and sacrificed at 1 to 24 h post injection (n = 2). Selected organs were removed, weighted and measured in a γ-counter.

[6] = tested on: AR4-2J tumor-bearing CB17-SCID mice; test: Biodistribution in AR4-2J tumor-bearing CB17-SCID mice; type: in vivo; conditions: 24 h p.i.
Method: as §1, §2

[7] = ^natCu-labeled, read-out: IC50 [nM] (n = 3), ^natCu-labeled
[8] = ^natGa-labeled, read-out: IC50 [nM] (n = 3), ^natGa-labeled
[9] = ^natLu-labeled, read-out: IC50 [nM] (n = 3), ^natLu-labeled

T2 sequence (P02768 25-609): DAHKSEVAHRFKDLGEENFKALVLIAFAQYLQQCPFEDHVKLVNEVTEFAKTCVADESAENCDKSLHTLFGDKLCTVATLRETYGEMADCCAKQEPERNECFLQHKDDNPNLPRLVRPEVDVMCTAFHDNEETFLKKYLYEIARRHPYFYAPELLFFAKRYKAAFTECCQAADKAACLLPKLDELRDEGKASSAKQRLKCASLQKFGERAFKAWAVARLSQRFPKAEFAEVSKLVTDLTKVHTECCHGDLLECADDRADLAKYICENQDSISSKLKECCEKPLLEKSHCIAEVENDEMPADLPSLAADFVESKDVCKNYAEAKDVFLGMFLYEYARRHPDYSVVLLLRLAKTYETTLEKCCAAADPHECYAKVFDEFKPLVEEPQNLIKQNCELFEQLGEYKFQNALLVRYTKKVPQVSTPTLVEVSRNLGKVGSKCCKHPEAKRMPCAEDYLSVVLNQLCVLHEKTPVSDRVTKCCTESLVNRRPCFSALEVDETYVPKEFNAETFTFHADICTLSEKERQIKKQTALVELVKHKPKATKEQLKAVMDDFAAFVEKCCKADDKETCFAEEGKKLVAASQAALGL

SMILES: CCCC[C@@H](C(=O)N[C@@H](CC(=O)O)C(=O)N[C@@H](Cc1cccc2ccccc12)C(N)=O)N(C)C(=O)[C@H](Cc1c[nH]c2ccccc12)NC(=O)CNC(=O)[C@H](Cc1ccc(O)cc1)NC(=O)[C@H](C)NC(=O)[C@@H](CCC(=O)O)NC(=O)CN1CCN(CC(=O)O)CCN(CC(=O)O)CCN(CC(=O)O)CC1 [DOTA-MGS5, DOTA-glu^6-Ala^7-Tyr^8-Gly^9-Trp^10-(N-Me)Nle^11-Asp^12-1-Nal^13-NH2, reference compound]
- IC50 (CCK-2R [1]; [7]): 3.9 ± 1 nM
- IC50 (CCK-2R [1]; [8]): 3.6 ± 0.4 nM
- HSA binding [%] [2]: 87.6%
- HSA binding [%], ^natCu-labeled [2]: 87.6%
- HSA binding [%], ^natGa-labeled [2]: 82.0%
- HSA binding [%], ^natLu-labeled [2]: 91.9%
- tissue to tissue ratio at 24 h [3]: 1480 ± 329
- tissue uptake at 24 h [3]: 11 ± 1.15 %ID/g

SMILES: CCCC[C@@H](C(=O)N[C@@H](CC(=O)O)C(=O)N[C@@H](Cc1cccc2ccccc12)C(N)=O)N(C)C(=O)[C@H](Cc1c[nH]c2ccccc12)NC(=O)CCOCCOCCOCCOCCNC(=O)CC[C@@H](NC(=O)CN1CCN(CC(=O)O)CCN(CC(=O)O)CCN(CC(=O)O)CC1)C(=O)O [DOTA-CCK-66, DOTA-γ-glu-(PEG)3-Trp-(N-Me)Nle-Asp-1-Nal-NH2] ({DOTA-d(γGlu)-PEG4}-W[NMeNle]D[1Nal]-NH2)
- IC50 (CCK-2R [1]; [7]): 4.2 ± 0.5 nM
- IC50 (CCK-2R [1]; [8]): 5 ± 0.5 nM
- IC50 (CCK-2R [1]; [9]): 5.1 ± 0.5 nM
- logD7.4 (n ≥ 5), ^64Cu-labeled ([4]; pH = 7.4, ^64Cu-labeled): −2.64 ± 0.04
- logD7.4 (n ≥ 5), ^67Ga-labeled [4]: −3.01 ± 0.07
- logD7.4 (n ≥ 5), ^67Ga-labeled ([4]; listed as [^67Ga]Ga-DOTA-CCK-66): < -3
- logD7.4 (n ≥ 5), ^177Lu-labeled [4]: −2.60 ± 0.07
- HSA binding [%] [2]: 61.5%
- HSA binding [%], ^natCu-labeled [2]: 61.5%
- HSA binding [%], ^natGa-labeled [2]: 53.8%
- HSA binding [%], ^natLu-labeled [2]: 69.1%
- tissue to tissue ratio at 24 h [3]: 2010 ± 469
- tissue uptake at 24 h [3]: 8.56 ± 1.08 %ID/g
- activity levels in stomach and tumor in competition studies (CCK-2R specificity) (CCK-2R [5]): significantly decreased activity levels in both stomach and tumor

SMILES: CCCC[C@H](NC(=O)[C@H](Cc1c[nH]c2ccccc12)NC(=O)CNC(=O)[C@H](Cc1ccc(O)cc1)NC(=O)[C@H](C)NC(=O)CC[C@@H](NC(=O)CC[C@@H](NC(=O)CC[C@@H](NC(=O)CC[C@@H](NC(=O)CC[C@@H](NC(=O)CC[C@@H](NC(=O)[C@@H](CNC(=O)c1ccc([Si](F)(C(C)(C)C)C(C)(C)C)cc1)NC(=O)CCC(C(=O)O)N1CCN(CC(=O)O)CCN(CC(=O)O)CCN(CC(=O)O)CC1)C(=O)O)C(=O)O)C(=O)O)C(=O)O)C(=O)O)C(=O)O)C(=O)N[C@@H](CC(=O)O)C(=O)N[C@@H](Cc1ccccc1)C(N)=O (some centres unmarked) [DOTAGA-MG-SiFA-19, DOTAGA-dap(SiFA)-γ-F11N]
- logD7.4 (n ≥ 5), ^177Lu-labeled [4]: −2.54 ± 0.05
- activity levels in stomach and tumor in competition studies (CCK-2R specificity) (CCK-2R [5]): specific

SMILES: CCCC[C@H](NC(=O)[C@H](Cc1c[nH]c2ccccc12)NC(=O)CNC(=O)[C@H](Cc1ccc(O)cc1)NC(=O)[C@H](C)NC(=O)CC[C@@H](NC(=O)CC[C@@H](NC(=O)CC[C@@H](NC(=O)CC[C@@H](NC(=O)CC[C@@H](NC(=O)CC[C@@H](NC(=O)CC[C@@H](NC(=O)CC[C@@H](NC(=O)[C@@H](CNC(=O)c1ccc([Si](F)(C(C)(C)C)C(C)(C)C)cc1)NC(=O)CN1CCN(CC(=O)O)CCN(CC(=O)O)CCN(CC(=O)O)CC1)C(=O)O)C(=O)O)C(=O)O)C(=O)O)C(=O)O)C(=O)O)C(=O)O)C(=O)O)C(=O)N[C@@H](CC(=O)O)C(=O)N[C@@H](Cc1ccccc1)C(N)=O [DOTA-MG-SiFA-23, DOTA-dap(SiFA)-(γ-glu)8- Ala-Tyr-Gly-Trp-Nle-Asp-Phe-NH2]
- IC50 (CCK-2R [1]; [9]): 4.71 ± 0.62 nM
- logD7.4 (n ≥ 5), ^177Lu-labeled [4]: −2.69 ± 0.06
- tissue uptake at 24 h ([3]; 24 h p.i., read-out: activity levels in the tumor): > 25 %ID/g
- activity levels in the tumor, fold higher than those of [^177Lu]Lu-DOTA-PP-F11N [6]: more than 8 fold
- activity levels in stomach and tumor in competition studies (CCK-2R specificity) (CCK-2R [5]): specific

SMILES: CCCC[C@@H](C(=O)N[C@@H](CC(=O)O)C(=O)N[C@@H](Cc1cccc2ccccc12)C(N)=O)N(C)C(=O)[C@H](Cc1c[nH]c2ccccc12)NC(=O)CCOCCOCCOCCOCCNC(=O)CC[C@@H](NC(=O)CCOCCOCCOCCOCCOCCOCCOCCOCCOCCOCCOCCOCCNC(=O)CC[C@@H](NC(=O)[C@@H](CNC(=O)c1cc(C(=O)O)cc([Si](F)(C(C)(C)C)C(C)(C)C)c1)NC(=O)CN1CCN(CC(=O)O)CCN(CC(=O)O)CCN(CC(=O)O)CC1)C(=O)O)C(=O)O [DOTA-rhCCK-69, DOTA-dap(SiFA-ipa)-γ-glu-(PEG)11-γ-glu-(PEG)3-Trp-(N-Me)Nle-Asp-1-Nal-NH2]
- IC50 (CCK-2R [1]; [9]): 43.1 ± 1.7 nM
- logD7.4 (n ≥ 5), ^177Lu-labeled [4]: −2.11 ± 0.09
- HSA binding [%] ([2]; Tab. 8, metal not stated (Fig. 18: ^natLu)): 84.7%
